assay: soluble fraction after stress (log2 fold change); higher = more stays soluble; pooled small domains, quantitative proteomics; settings: stress: pH 4
Outline: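 High-throughput quantitative proteomics was run on pooled custom libraries of small protein domains following pH 4 stress. Fold changes are on a log2 scale; higher values mean more of a domain remained soluble. The fold change in soluble amount is taken as a measure of aggregation propensity.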

Row | Sequence | soluble fraction (log2)
1 | HMRNISLSLRWHSGEWTADRLKSEVLALPGAMDMTVFEPQSQAYLRVEQGFDTKLLPAGIDVH | -0.958
2 | HMTNPPITTEARNLVVEQLKELNALHPEKARELADSYKKEFNVPKVIGHITEARHGEFLALAISKIDES | -0.399
3 | HMSPVKAPLPGVVLDIHVSVGQEVKASDTVVTLEAMKMENAIKAGVDGKVASISVGKGDSVLEGAVLLTI | 0.322
4 | HMDDFVEIDGKKYEIDMSFDNILRLFDLLKDKSLNDVTKIETGLIMLIDDSLDDYDTEEKADIFVQIF | 0.22
5 | HMDPPYKDKNLHELLLKINNLNILKKDSVIILHRHKKQKEIFPSNFKIIEQKQYGISKIIFLTVL | 0.217
6 | HMAENMNAALRVSSLINQIGTVNAKAKDRIESARKAYDALSEAQKAYVANLTTLETAETSLSKL | 0.146
7 | HMKEVKAPMPGMVLRVEVAPGQEVQEGDPLLVLEAMKMENNLKSPASGTIKSVHVEAGKAVEKGAVLVVF | -0.257
8 | HMDAPQRVTYLLPHSRGEVVSWLHRQGEVVAQEYEAEGVRVVVDLRYAQIRQAAKQFDVLPAEG | -0.656
9 | HMPVFSLTPRELEILEWMSTPNTYRQIAAQLSVSEETVRSHAKNILEKMRQPNRAQAVLAAVKMGLIKL | -0.772
10 | HMDDINVSNSKNIVPNVTGHTGSKAIPVLENLGLDVQYSGFGKVTNQSIPAGTRFKKGETIYLMLE | -0.0218
11 | HMFDNPLSERDKEILNHISMGKSNKEIANQVGLAEQTIKNTISVILDKTFTSNRAQAASMATKNKW | -0.0659
12 | HMGQAAHYEGVKGDGESDTDVISRVLTAAGAEAQKDDIFVVKELIAGGKYSYTAYVYDGSVWAAM | -0.502
13 | HMIFRPALITDLDAVERHYTELLTREAETGRSSTNWSLGVYPTRQTATAAQAAGTLWVLEREGQVVASVI | -0.552
14 | HMTVSIGSVIARERRLRGDTQQELAERLGVSKAAVSKWEVGQSIPDVTLLPRIAAYFSLTLDEL | -0.276
15 | HMDNEIEQIVEDLNLTLSSLKYTKNQIESILPLIIKEIDDFKKKEKNISFENLLKLAMNHLDND | -1.16
16 | HMEGVSSESVKEMLKSIIDGEDPHNPVSDQRITDILNSRGINISRRTVAKYRDELGIASSSRRKRY | 0.112
17 | HMVLIQNEDVKDISNYPLLSSVPVFDVFNNKMIIPTFNKDSFNPLIYNFNFNSKRRLIYRVDNTNYLIVIK | -0.241
18 | HMFEDYLRMKGLSIVSFSKQTGIPISTLRNLNKIRYDKWKIRYLEELSNVLNKTIQEIIEELKNMG | -1.32
19 | HMDEWDPAILYVGLDYEDAAQIATRLATSGVPYRLSPDGTMITVPDDQVNNMRLTLAGEGFPH | -1.12
20 | HMQQYLDAYDKALAFGIAMNKLPSYENLTLDDKEDVDKLKEIYDGMSNYEKTFVAKDFTDKLDRYVKRIE | 0.144
21 | HMISRDPYDAGAIKRHFSASGLFSSKELAHYLGKSVSTAKNVLSDLQQQGIVEMVGQGPATKYRFI | 0.285
22 | HMVSRAFEEETVKRAESGNQEAALFALELAIREIEHSYEKSKIIDYFVSKVRLFLDNGVSLERALGIH | -0.0689
23 | HMTGMEASLSKLLQGEQFADLRKALIDKGIRKLEAFKRLNLWVFMNRNRLYSIGQRQTVYSTLQRALASE | 0.085
24 | HMVMPTGRVRYYDAEKGFGFLSKDSGGDDVYVRSSALPAGVTSLKRGQKVEFGIIDGKRGEQALSVHLL | 0.0712
25 | HMAFIEIMTEGDADGRGFQYPIPTYSITRDFDWSETENNKLLFEMTAKYGTPYFSNYINSDMEPSDV | -0.913
26 | HMTTYTGVVTGSGVNVRSGAGTSYPVVGSKTMGDVVTITETVSADGMIWGKIDIGWISMNYVRM | -0.434
27 | HMLSDEEKMAALNEQARQRGFTISPGVLPYLITHYQRDMHSLSMILDALDRYSLQTKRTITLPLLHDLLQQ | -0.228
28 | HMTVEVFQSLVQTFREMSPRKAASILEELKRDLAVEILLHMPEDGVAAILARMDPARAARLTEQLALEKD | -0.867

Row | Sequence | soluble fraction (log2)
29 | HMSGHEVMVQRITAIIAELYQYGFVSRKKMMDEFNISERTLYRDLNRLGDRIVPDGDGIYRLAPAYA | -0.954
30 | HMVKPKIILADIGMITETDVTLAKASQAVLIAFNVKPSKEAKKLAEDENIKISTYNIIYEVLDFVKKSMSG | 0.0492
31 | HMAVNSALVQRNWLIGYRIAEEELQGDNRAEYGASIIKKLAKELTAEYGKGYTKTNLYHFYSFYKT | -0.494
32 | HMTQSGLTQWEFNMLRQALIEMLGEKPGSVFELARLLPLEQEKNVQALRFLLDHDDQFHLKDEYISFVKRT | -1.82
33 | HMNAYEVLIPNIYIGQRVDQTLASLFPQFSRSRLQNWLARGNLLIDGEIIKPKTKVLGGEQIIILDT | -1.05
34 | HMDFSERLARAMSLAGYTQGRLAKEVGMAQSSVNKLLNGANGSRKTVEIASVLGVRPEWLSTGAGEML | 0.0512
35 | HMKNNYQYIVDQIKQLILDGELIVGDRLPSERDLSEMYQVSRASVREALKALETIGLLESRHGGGNYIVNH | -0.68
36 | HMDLIFQKGDLVFSTEHNQRGIFYEYLEQGQAKISIEKQFFVVAARRLQLLTKREVLYPAGYDLDQLFV | -1.05
37 | HMSSFSESFHKALNNLDDKHKSVFSLRHFEGFSMKEIAETLNINEGTVKSRLFYATKTLAGALKEF | -1.29
38 | HMNGSVLVTGGSVWIRAGASKETDGLGIVHKGDVLKRSGSDASGWRGVVYEGQNAFISAKYSSI | 0.424
39 | HMDDIVPHSTKNHIIKTFLSLMNSLDIITDKNKKSLNQNVHIIFNKFNFSKKEANLFIGVLNRIQKALK | 0.134
40 | HMANLLNLREIPVANIRPELTMFLIPGENITQAFQTIRDQVVFTNKRLIVANVQGLTGKKVSYTSYPY | -0.251
41 | HMHQPPDLDDFEAFVGRVKPALLQALVATYGPVDGREATVDALSWAWEHWDRLADVDHPVGYLYRV | -0.189
42 | HMTEDIAVRILEFLEDNNGFYALNDKTPSEKIHDLFGVSKKKFKIALGGLYKQRLITVSDAGVTLVK | -0.404
43 | HMQPPKIISTVEPYREVVREYLKQGVEMTAIWQRLRENYQYTGSYSSVRRFVAQLEPRQPEA | -0.135
44 | HMLDQGTQSRYQIMDGVRALITGDWSSHGAGLVRELSQEVARTSGLTATSERTFFVPFSALS | -0.111
45 | HMYNNGYVNSDRVNFRKGASTNSDIYKVLDKNTSVTILDYEGDWSKVKINDTVGYVYTKYITAG | -0.0882
46 | HMVITQVSTTQTDTTFQYHKVKPKETLFSISRLYEVSIDEIKTINPALNSRELMAGELLKLPIK | -0.337
47 | HMKKMSFKEAFLKYVEIKDNPYNMESVKMLVSLQPLIVKAYSILGVDKVRRLNYVKTKIQDAIINGD | 0.0648
48 | HMGKTIIQLATDYLIKNMQPKSLHDIESYVLTRKKIKKSSIGAILLSKPNIFGRTEDGLFGLRIWNNFQYT | -0.14
49 | HMLIVLKPNVSQEEIDHIVDKIRSLSLEPHVSTGVQRTIITVIGDEDVIREQPLEALAGVESVKSILKP | -0.144
50 | HMHRFAVLDTVREVAAGGVAATLSIGVGRDADSFDALFKNASMALEMALSRGGDQAVVKDRMNFQFYGG | -0.0192
51 | HMKLARGEFEIMAKFIKEISGISLEQNKTYLIESRLSDLAESEGVKTFSDFFFKAKFNKILKEKIIDAI | -0.957
52 | HMGGKAITGGEGEIIIRADKAETVAIYGIDGRLVHRVSTEAGDTKRVSVPAGIYIVKGAKVVV | 0.42
53 | HMEAYMVPNVKNKTLNEAQQALSNQKLKGLVIDSSYVKGVPDGMVLDQNPAGGARVKEGRTIYLTVTTS | 0.259
54 | HMEVGDTYLGKVTRVSSFGAFIEVLPGKEGLMRQNDAGEGGMPEVGDEVMVRVMEVDHLGRINLSGKLDD | -1.32
55 | HMAASTPGTVTGSVVNVRPDPSTNNDRIGVIYQGTKVEILAQVGEWYNIQFGPVSGWVHKDYISTGA | -0.161
